The target in experiment [1] is Ser838(g- r+):Arg838(g+ r-) RetGC1 heterodimer (human) (UniProt Q02846).
Experiment [2] addresses Ser838(g- r+):Ser838(g+ r-) RetGC1 dimer (human) (UniProt Q02846).
The target in experiment [3] is Arg838(g- r+):Arg838(g+ r-) RetGC1 dimer (human) (UniProt Q02846).
Experiment [4] concerns the target mOrange-tagged R666W RetGC1 (human) (UniProt Q02846). The experiment is described as follows: co-localisation of fluorescent fusions in living cells (confocal microscopy, PCC); mOrange-RetGC1 co-expressed with GCAP1-GFP or RD3-GFP in HEK293 cells (GFP plasmid to RetGC1 plasmid ~1/100 molar ratio); confocal images 24-30 h after transfection; PCC of whole-cell images; the GFP proteins are diffuse without RetGC1 and go to the membrane cyclase when they bind; PCC < 0.6 indicates lack of co-localization.

Experiment [5] addresses R838S mOrange-RetGC1 (human) (UniProt Q02846). The experiment is described as above.
The target in experiment [6] is mOrange-tagged WT human RetGC1 (human) (UniProt Q02846). The description is as above.
The target in experiment [7] is WT human RetGC1 (human) (UniProt Q02846).
Experiment [8] shares this target. The source holds these as a separate data set.
Experiment [9] addresses R666W RetGC1 (human) (UniProt Q02846).
Experiment [10] has as its target mOrange-tagged G982VfsX39 RetGC1 (human) (UniProt Q02846). As to the kind of experiment: co-localisation of fluorescent fusions in living cells (confocal microscopy, PCC); mOrange-RetGC1 co-expressed with GCAP1-GFP or RD3-GFP in HEK293 cells (GFP plasmid to RetGC1 plasmid ~1/100 molar ratio); confocal images 24-30 h after transfection; PCC of whole-cell images; the GFP proteins are diffuse without RetGC1 and go to the membrane cyclase when they bind; PCC < 0.6 indicates lack of co-localization.

In experiment [11] the target is mOrange-tagged R666W RetGC1 (human) (UniProt Q02846). Described as above. The source holds these as a separate data set.
The target of experiment [12] is R838S mOrange-RetGC1 (human) (UniProt Q02846). The description is as above. The source holds these as a separate data set.
In experiment [13] the target is mOrange-tagged WT human RetGC1 (human) (UniProt Q02846). Described as above. This is another data set of the same source.
Experiment [14] addresses mOrange-tagged R761W RetGC1 (human) (UniProt Q02846). Described as above.
The target in experiment [15] is mOrange-tagged L911F RetGC1 (human) (UniProt Q02846). The experiment is described as above.

Where two headings read alike, the source gives them in different places.

Regarding “Recombinant human RD3 (from UniProt Q7Z3Z2 1-195) (natural protein)”, the [RD3]1/2: RD3 concentration causing 50% inhibition of RetGC1 activity preactivated by 1.5 μM GCAP1 in 10 mM Mg2+ and 2 mM EGTA; pair acted on: GCAP1 with the cyclase dimer in experiment [1] amounted to 42 nM; in [2] it was 23 nM; in [3], 2.3 nM.

For the molecule “RD3-GFP (from UniProt Q7Z3Z2 1-195) (natural protein)”, the values for the PCC (Pearson's correlation coefficient of co-localization) in [4], in experiment [5] and in experiment [6] were 0.9, 0.91 and 0.91, respectively.

B1: Human GCAP1 (E6S), N-myristoylated (natural protein)
chain: MGNVMSGKSVEELSSTECHQWYKKFMTECPSGQLTLYEFRQFFGLKNLSPSASQYVEQMFETFDFNKDGYIDFMEYVAALSLVLKGKVEQKLRWYFKLYDVDGNGCIDRDELLTIIQAIRAINPCSDTTMTAEEFTDTVFSKIDVNGDGELSLEEFIEGVQKDQMLLDTLTRSLDLTRIVRRLQNGEQDEEGADEAAEAAG
modifications: N-myristoylated
For the molecule B1, the [GCAP]1/2: half-saturating concentration of GCAP1 for RetGC1 activation in 10 mM Mg2+ and 2 mM EGTA (Fig. 10C) in experiment [1] came to 0.22 µM; in experiment [7], 1.1 µM; in [2], 0.4 µM; in experiment [3], 1.65 µM. The same molecule showed a [GCAP]1/2: half-saturating concentration of Mg2+ GCAP1 for activation of guanylyl cyclase activity in HEK293 membranes (10 mM Mg2+, 2 mM EGTA) in [8] of 1.13 µM. In experiment [9], the [GCAP1]1/2: half-saturating concentration of Mg2+ GCAP1 for activation of guanylyl cyclase activity in HEK293 membranes (10 mM Mg2+, 2 mM EGTA) is 7.25 µM.

B2: GCAP1-GFP (natural protein)
chain: MGNIMDGKSVEELSSTECHQWYKKFMTECPSGQLTLYEFRQFFGLKNLSPWASQYVEQMFETFDFNKDGYIDFMEYVAALSLVLKGKVEQKLRWYFKLYDVDGNGCIDRDELLTIIRAIRAINPCSDSTMTAEEFTDTVFSKIDVNGDGELSLEEFMEGVQKDQMLLDTLTRSLDLTRIVRRLQNGEQDEEGASGRETEAAEADG
On to B2, for which the PCC (Pearson's correlation coefficient of co-localization) in experiment [10] came out at 0.87; in experiment [11] it was 0.64; in [12] it was 0.89; in experiment [13], 0.9; in experiment [14] it was 0.64; in experiment [15] it was 0.89.

B3: Human GCAP3, N-myristoylated (natural protein)
chain: MGNGKSIAGDQKAVPTQETHVWYRTFMMEYPSGLQTLHEFKTLLGLQGLNQKANKHIDQVYNTFDTNKDGFVDFLEFIAAVNLIMQEKMEQKLKWYFKLYDADGNGSIDKNELLDMFMAVQALNGQQTLSPEEFINLVFHKIDINNDGELTLEEFINGMAKDQDLLEIVYKSFDFSNVLRVICNGKQPDMETDSSKSPDKAGLGKVKMK
modifications: N-myristoylated
For the molecule B3, in experiment [8], the [GCAP]1/2: half-saturating concentration of Mg2+ GCAP3 for activation of guanylyl cyclase activity in HEK293 membranes (10 mM Mg2+, 2 mM EGTA) came to 5.3 µM.

B4: Human GCAP2, N-myristoylated (natural protein)
chain: MGQEFSWEEAEAAGEIDVAELQEWYKKFVMECPSGTLFMHEFKRFFKVTDDEEASQYVEGMFRAFDKNGDNTIDFLEYVAALNLVLRGTLEHKLKWTFKIYDKDGNGCIDRLELLNIVEGIYQLKKACRRELQTEQGQLLTPEEVVDRIFLLVDENGDGQLSLNEFVEGARRDKWVMKMLQMDMNPSSWLAQQRRKSAMF
modifications: N-myristoylated
In experiment [8], B4 gave a [GCAP]1/2: half-saturating concentration of Mg2+ GCAP2 for activation of guanylyl cyclase activity in HEK293 membranes (10 mM Mg2+, 2 mM EGTA) of 19 µM.
